{
  "source": "patent US6465220B1",
  "about": "“Glycosylation using GalNac-T4 transferase” (GlycoZym ApS, priority 1998, dated 2002)",
  "format_in_all_cases": "biochemical",
  "key": {"GalNAc-T1": {"target": "T1, GalNAc-T1 (Homo sapiens, UniProt Q10472)", "T1 construct": "Control constructs pAcGP67-GalNAc-T1-sol, pAcGP67-GalNAc-T2-sol, pAcGP67-GalNAc-T3-sol, and pAcGP67-O^2-sol were prepared as previously described; made in house; host or cells: insect cells (baculovirus, pAcGP67)", "T1 sequence (Q10472 41-559 limits assumed)": "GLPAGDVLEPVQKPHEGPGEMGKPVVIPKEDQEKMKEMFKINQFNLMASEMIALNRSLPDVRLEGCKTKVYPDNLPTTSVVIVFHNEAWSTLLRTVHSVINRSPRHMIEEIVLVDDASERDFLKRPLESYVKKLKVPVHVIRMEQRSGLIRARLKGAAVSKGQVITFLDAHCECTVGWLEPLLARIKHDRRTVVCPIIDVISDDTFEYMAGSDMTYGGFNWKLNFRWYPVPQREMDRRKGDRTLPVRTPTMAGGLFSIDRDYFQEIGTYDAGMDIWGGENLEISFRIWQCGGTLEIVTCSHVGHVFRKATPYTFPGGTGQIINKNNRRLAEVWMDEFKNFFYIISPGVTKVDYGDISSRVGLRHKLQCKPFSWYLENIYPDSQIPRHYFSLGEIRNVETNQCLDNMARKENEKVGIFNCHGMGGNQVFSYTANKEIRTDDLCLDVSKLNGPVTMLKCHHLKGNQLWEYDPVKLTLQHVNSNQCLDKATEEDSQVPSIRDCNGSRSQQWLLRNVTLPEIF", "assay": "GalNAc-transferase assay with purified recombinant GalNAc-T1", "details": "acceptor substrate", "method": "(§1) The following examples are provided to illustrate certain preferred embodiments of the invention, and should be considered as illustration and not as limitation. In the examples, GalNAc-transferase assays were performed in 50 μl total reaction mixtures containing 25 mM cacodylate (pH 7.5), 10 mM MnCl2, 0.1-0.25% Triton X-100, 150-200 μM UDP-[^14C]-GalNAc (4,000 cpm/nmole) (Amersham) and 0.06-1 mM acceptor peptides. Peptides were either synthesized or obtained from Carlbiotech (Copenhagen), or Neosystems (Strasbourg), and quality was ascertained by amino acid analysis and mass spectrometry. Peptides Muc-1a, Muc-1b, and TAP24, were derived from the tandem repeat of human MUC1, Gendler et al., J. Biol. Chem. 265:15286 (1990), and Muc2, Muc5AC, and Muc7 from the tandem repeats of MUC2, MUC5AC, and MUC7, respectively. Gum et al., J. Biol. Chem. 264:6480 (1989); Porchet et al., Biochem. Soc. Trans. 23:800 (1995); Bobek et al., J. Biol. Chem. 268:20563 (1993). GalNAc4TAP24 was produced by in vitro glycosylation using GalNAc-T2 as described in Wandall et al., J. Biol. Chem. 272:23503 (1997). Products were quantified by scintillation counting after chromatography on Dowex-1, octadecyl silica cartridges (Bakerbond), or HPLC (PC3.2/3 or mRPC C2/C18 SC2.1/10 Pharmacia, Smart System). Products produced by in vitro glycosylation were in most cases also confirmed by mass spectrometry.\nIn this example, GalNAc-T4 was expressed in Sf9 insect cells. Expression constructs designed to contain amino acid residues 32-578 of the coding sequence of the putative GalNAc-T4 gene shown in SEQ ID NO:1 prepared by genomic PCR of two clones containing GalNAc-T4 (described in Bennett et al. (1998), supra) were cloned into a BamHI site of the expression vector pAcGP67 (Pharmingen), and the expression construct was sequenced. […]"}, "GalNAc-T3": {"target": "T2, GalNAc-T3 (Homo sapiens, UniProt Q14435)", "T2 construct": "Control constructs pAcGP67-GalNAc-T1-sol, pAcGP67-GalNAc-T2-sol, pAcGP67-GalNAc-T3-sol, and pAcGP67-O^2-sol were prepared as previously described; made in house; host or cells: insect cells (baculovirus, pAcGP67)", "T2 sequence (Q14435 38-633 limits assumed)": "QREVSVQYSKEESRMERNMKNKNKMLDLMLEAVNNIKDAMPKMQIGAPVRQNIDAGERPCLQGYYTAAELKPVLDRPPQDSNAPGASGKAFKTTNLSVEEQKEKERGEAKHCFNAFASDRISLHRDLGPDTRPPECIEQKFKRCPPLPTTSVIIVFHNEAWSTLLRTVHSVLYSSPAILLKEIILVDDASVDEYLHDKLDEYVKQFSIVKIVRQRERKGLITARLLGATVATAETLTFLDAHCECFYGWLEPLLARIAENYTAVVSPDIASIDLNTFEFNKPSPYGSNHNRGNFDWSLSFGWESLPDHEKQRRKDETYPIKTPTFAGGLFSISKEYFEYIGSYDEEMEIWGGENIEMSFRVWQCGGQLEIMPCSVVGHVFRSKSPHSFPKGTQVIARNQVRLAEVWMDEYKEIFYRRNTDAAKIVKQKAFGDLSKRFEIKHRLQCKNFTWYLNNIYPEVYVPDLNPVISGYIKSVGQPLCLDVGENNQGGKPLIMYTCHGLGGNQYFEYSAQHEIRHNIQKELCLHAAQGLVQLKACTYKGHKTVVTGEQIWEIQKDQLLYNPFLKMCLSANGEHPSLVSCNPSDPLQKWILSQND", "assay": "GalNAc-transferase assay with purified recombinant GalNAc-T3", "details": "acceptor substrate", "method": "as §1\n(§2) In this example, GalNAc-T4 was expressed in Sf9 insect cells. Expression constructs designed to contain amino acid residues 32-578 of the coding sequence of the putative GalNAc-T4 gene shown in SEQ ID NO:1 prepared by genomic PCR of two clones containing GalNAc-T4 (described in Bennett et al. (1998), supra) were cloned into a BamHI site of the expression vector pAcGP67 (Pharmingen), and the expression construct was sequenced. The constructs pAcGP67-GalNAc-T4506Vsol and pAcGP67-GalNAc-T4506 I sol, were designed to yield a putative soluble form of the GalNAc-T4 protein with an N-terminal end positioned immediately C-terminal to a potential transmembrane domain and including the entire sequence expected to contain the catalytic domain. Control constructs pAcGP67-GalNAc-T1-sol, pAcGP67-GalNAc-T2-sol, pAcGP67-GalNAc-T3-sol, and pAcGP67-O^2-sol were prepared as previously described in White et al., J. Biol. Chem 270:24156 (1995); Bennett et al., J. Biol. Chem. 271:17006 (1996); and Bennett et al., Biochem. Biophys. Res. Comm. 211:347 (1995)."}, "GalNAc-T4": {"target": "T3, GalNAc-T4 (Homo sapiens, UniProt Q8N4A0)", "T3 construct": "made in house; host or cells: High Five insect cells (baculovirus, pAcGP67 vector)", "assay": "GalNAc-transferase assay with purified recombinant GalNAc-T4", "details": "for GalNAc-T4 activity with substrate (in words): purified GalNAc-T4", "method": "as §1, with “In” for “The following examples are provided to illustrate certain preferred embodiments of the invention, and should be considered as illustration and not as limitation. In”\nas §2, with “Control constructs pAcGP67-GalNAc-T1-sol, pAcGP67-GalNAc-T2-sol, pAcGP67-GalNAc-T3-sol, and pAcGP67-O^2-sol were prepared as previously described in White et al., J. Biol. Chem 270:24156 (1995); Bennett et al., J. Biol. Chem. 271:17006 (1996); and Bennett et al., Biochem. Biophys.” left out\nThe activities presented in Table I were obtained with purified GalNAc-T4 and -T2, and are expressed as mU/mg (the concentration of enzyme protein estimated by SDS-PAGE using BSA as standard)."}, "GalNAc-T2": {"target": "T4, GalNAc-T2 (Homo sapiens, UniProt Q10471)", "T4 construct": "Control constructs pAcGP67-GalNAc-T1-sol, pAcGP67-GalNAc-T2-sol, pAcGP67-GalNAc-T3-sol, and pAcGP67-O^2-sol were prepared as previously described; made in house; host or cells: insect cells (baculovirus, pAcGP67)", "assay": "GalNAc-transferase assay with purified recombinant GalNAc-T2", "method": "as §1, §2\nActivities measured with the mucin derived substrates, Muc7, EA2, and Muc2 (see Table I for structures and SEQ ID NOs:19, 25 and 18, respectively), were only 2-7 fold over background values. Very low activities with a few other substrates were also observed, but for many of the “mucin-like” substrates a relative high background with Sf9 cells infected with irrelevant constructs made assessment difficult. GalNAc-T4 was expressed in High Five cells and purified to near homogeneity, however, very low endogenous activity was detected with some substrates in the same fractions when medium from cells infected with irrelevant expression constructs were used in the same purification strategy. The activities presented in Table I were obtained with purified GalNAc-T4 and -T2, and are expressed as mU/mg (the concentration of enzyme protein estimated by SDS-PAGE using BSA as standard). The highest activities with GalNAc-T4 were found from assays of Sf9 medium with the mucin peptides Muc7, EA2, and Muc2, however, the efficiencies with these substrates were considerably lower than GalNAc-T2."}},
  "data": [
    {"sequence": "DSTTPAPTTK [EA2, mucin derived substrate]", "values": [
      {"measurement": "Km", "setting": "GalNAc-T1", "value": 70, "unit": "µM"},
      {"measurement": "Vmax GalNAc-T1", "setting": "GalNAc-T1", "value": 0.99, "unit": "nmol/min/µg"},
      {"measurement": "Km", "setting": "GalNAc-T3", "value": 460, "unit": "µM"},
      {"measurement": "Vmax GalNAc-T3", "setting": "GalNAc-T3", "value": 0.96, "unit": "nmol/min/µg"},
      {"measurement": "GalNAc-T4 activity with acceptor peptide", "setting": "GalNAc-T4; 0.06 mM peptide in 50-μl assay", "value": "15 ± 0.1", "unit": "milliunits/mg"},
      {"measurement": "GalNAc-T4 activity with acceptor peptide", "setting": "GalNAc-T4; 0.25 mM peptide in 50-μl assay", "value": "42 ± 4", "unit": "milliunits/mg"},
      {"measurement": "Vmax GalNAc-T4", "setting": "GalNAc-T4; acceptor substrate", "value": 0.44, "unit": "nmol/min/µg"},
      {"measurement": "Km", "setting": "GalNAc-T4; acceptor substrate, read-out: Km GalNAc-T4", "value": 2190, "unit": "µM"},
      {"measurement": "GalNAc-T2 activity with acceptor peptide", "setting": "GalNAc-T2; 0.06 mM peptide in 50-μl assay", "value": "152 ± 3", "unit": "milliunits/mg"},
      {"measurement": "GalNAc-T2 activity with acceptor peptide", "setting": "GalNAc-T2; 0.25 mM peptide in 50-μl assay", "value": "376 ± 5", "unit": "milliunits/mg"},
      {"measurement": "Km", "setting": "GalNAc-T2; acceptor substrate", "value": 850, "unit": "µM"},
      {"measurement": "Vmax GalNAc-T2", "setting": "GalNAc-T2; acceptor substrate", "value": 1.80, "unit": "nmol/min/µg"}
    ]},
    {"sequence": "PRFQDSSSSKAPPPSLPSPSRLPG [hCG-β]", "values": [
      {"measurement": "GalNAc-T2 activity with acceptor peptide", "setting": "GalNAc-T2; 0.06 mM peptide in 50-μl assay", "value": "22 ± 0.5", "unit": "milliunits/mg"},
      {"measurement": "GalNAc-T2 activity with acceptor peptide", "setting": "GalNAc-T2; 0.25 mM peptide in 50-μl assay", "value": "74 ± 2", "unit": "milliunits/mg"}
    ]},
    {"sequence": "PTTTPISTTTMVTPTPTPTC [Muc2, peptide from the tandem repeats of MUC2]", "values": [
      {"measurement": "GalNAc-T4 activity with acceptor peptide", "setting": "GalNAc-T4; 0.06 mM peptide in 50-μl assay", "value": "9 ± 0.5", "unit": "milliunits/mg"},
      {"measurement": "GalNAc-T4 activity with acceptor peptide", "setting": "GalNAc-T4; 0.25 mM peptide in 50-μl assay", "value": "29 ± 0.8", "unit": "milliunits/mg"},
      {"measurement": "GalNAc-T2 activity with acceptor peptide", "setting": "GalNAc-T2; 0.06 mM peptide in 50-μl assay", "value": "169 ± 2", "unit": "milliunits/mg"},
      {"measurement": "GalNAc-T2 activity with acceptor peptide", "setting": "GalNAc-T2; 0.25 mM peptide in 50-μl assay", "value": "128 ± 5", "unit": "milliunits/mg"}
    ]},
    {"sequence": "QATEYEYLDYDFLPEC [PSGL-1a]", "values": [
      {"measurement": "GalNAc-T4 activity with substrate (in words)", "setting": "GalNAc-T4", "value": "not"},
      {"measurement": "GalNAc-T2 activity with acceptor peptide", "setting": "GalNAc-T2; 0.06 mM peptide in 50-μl assay", "value": 0.0, "unit": "milliunits/mg"},
      {"measurement": "GalNAc-T2 activity with acceptor peptide", "setting": "GalNAc-T2; 0.25 mM peptide in 50-μl assay", "value": 0.0, "unit": "milliunits/mg"}
    ]},
    {"sequence": "RPAPGSTAPPA [Muc1b′, peptide derived from the tandem repeat of human MUC1]", "values": [
      {"measurement": "GalNAc-T4 activity with acceptor peptide", "setting": "GalNAc-T4; 0.25 mM peptide in 50-μl assay", "value": "0.7 ± 0.5", "unit": "milliunits/mg"},
      {"measurement": "GalNAc-T4 activity with acceptor peptide", "setting": "GalNAc-T4; 1 mM peptide in 50-μl assay", "value": "0.9 ± 0.8", "unit": "milliunits/mg"},
      {"measurement": "GalNAc-T4 activity with substrate (in words)", "setting": "GalNAc-T4", "value": "somewhat poor activities"},
      {"measurement": "GalNAc-T2 activity with acceptor peptide", "setting": "GalNAc-T2; 0.25 mM peptide in 50-μl assay", "value": "198 ± 9", "unit": "milliunits/mg"},
      {"measurement": "GalNAc-T2 activity with acceptor peptide", "setting": "GalNAc-T2; 1 mM peptide in 50-μl assay", "value": "582 ± 9", "unit": "milliunits/mg"}
    ]}
  ]
}
